Legend:
BAL cells = experiment: Counts of BAL cells in intranasally challenged mice; assay type: in vivo, mouse; settings: intranasal once a day×5 days, 100 nM rFIZZ1 or 0.1 ng/ml LPS; vs PBS-treated mice
Experimental: For some experiments, ex vivo TSM tensions of fresh tracheal rings and BAL cell counts were measured at 24 hours after the last treatment of mice receiving an intranasal dose of either PBS, 0.1 ng/m: LPS or 100 nM rFIZZ1 (once a day×5 days).
PBS- and OA-treated mice were sacrificed and their airways lavaged once with 1.0 mL of PBS via tracheal cannulation. An equal volume of BAL from each mouse was collected and centrifuged (1200 rpm, 5 min). Total BAL cells were counted using a hemocytometer. BAL cells ([…]) collected from each sample were applied to a glass slide using a cytospin (800 rpm, 8 min) and then the slide was stained with Hema 3 Stain Set (Fisher Scientific) for the differential count of cells. The relative proportion of different cells counted from 300 cells/slide was factored to the number of total BAL cells collected in each group.

[1] = tested on: TSM of epithelium-denuded trachea; experiment: CCh-evoked force in trachea with mechanically removed epithelium EP(−); assay type: cell-based, mouse
Experimental: Histological examination of the structure of the airway and the status of the airway epithelial layer was performed in whole/sectional fresh trachea and as well as trachea cultured overnight with and without 100 nM FIZZ1. To understand the role of airway epithelium in regulating contractility of TSM, we measured the contractile response of tracheal rings after the epithelium was mechanically removed. Briefly, airway epithelial cells were removed by gently rubbing the intraluminal surface with polyethylene tubing (Becton Dickinson & Company, MD USA) connected to a Precision Glide needle (30G1/2) followed by perfusion with 1.0 ml air bubbles and then 1.0 ml K-H solution (re). All of the experimental tracheas were stained with H & E solution (CAT hematoxylin, Edgar Degas Eosin Working Solution, Biocare Medical, Concord, Calif.) and photographed under a light microscope at ×4.0 and ×20 magnification. […]
At the end of each force measurement experiment, tracheas were blotted on a gauze pad and weighted. Results were calculated as milligram of tension per milligram of TSM weight (mg/mg) and expressed as an individual percentage (%) of 10 μM CCh- or 200 μM papaverine-induced tension response in PBS-treated trachea. […]

B1: rFIZZ1: recombinant FIZZ1 (Leinco Technologies), mouse FIZZ1 protein, resistin-like molecule-α (protein, listed as Mus musculus)
chain: MKTTTCSLLICISLLQLMVPVNTDETIEIIVENKVKELLANIPANYPSTVTKTLSCTSVKTMNRWASCPAGMTATGCACGFACGSWEIQSGDTCNCLCLLV
modifications: (1)..(101) Murine FIZZ1 polypeptide
- number of BAL cells (BAL cells): increase
- EP(−) TSM sensitivity to CCh, LogEC50 ([1]; EP(−)/FIZZ1 100 nM, Mean ± SE, N=8): −0.91 ± 0.08 μM
- maximal tensions (%), CCh stimulation, EP(−) trachea ([1]; denuded epithelium EP(−) with 100 nM FIZZ1, EP(+) 100±6.22): 141.43±6.65%
